Test [1] concerns the target T1, human NPR3 (counter target) (human) (UniProt P17342).
T1 sequence (looked up): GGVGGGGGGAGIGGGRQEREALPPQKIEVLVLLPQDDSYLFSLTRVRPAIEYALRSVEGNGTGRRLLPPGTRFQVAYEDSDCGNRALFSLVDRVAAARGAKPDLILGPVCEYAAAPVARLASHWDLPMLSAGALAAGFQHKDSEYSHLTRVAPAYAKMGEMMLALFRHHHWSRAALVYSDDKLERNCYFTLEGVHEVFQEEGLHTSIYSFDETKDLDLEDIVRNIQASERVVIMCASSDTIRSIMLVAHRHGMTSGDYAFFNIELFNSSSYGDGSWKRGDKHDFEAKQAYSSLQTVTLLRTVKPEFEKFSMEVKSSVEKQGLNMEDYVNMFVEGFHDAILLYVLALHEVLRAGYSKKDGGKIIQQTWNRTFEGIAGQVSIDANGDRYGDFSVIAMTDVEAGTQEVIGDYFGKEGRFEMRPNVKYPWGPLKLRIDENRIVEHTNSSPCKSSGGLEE
The test is described as follows: ELISA, 1 uM IgG. (In general: In an ELISA, binding on a coated surface is turned into a signal by an enzyme label.)

Test [2] addresses T2, rat NPR1, recombinant antigen (rat) (UniProt P18910).
T2 sequence: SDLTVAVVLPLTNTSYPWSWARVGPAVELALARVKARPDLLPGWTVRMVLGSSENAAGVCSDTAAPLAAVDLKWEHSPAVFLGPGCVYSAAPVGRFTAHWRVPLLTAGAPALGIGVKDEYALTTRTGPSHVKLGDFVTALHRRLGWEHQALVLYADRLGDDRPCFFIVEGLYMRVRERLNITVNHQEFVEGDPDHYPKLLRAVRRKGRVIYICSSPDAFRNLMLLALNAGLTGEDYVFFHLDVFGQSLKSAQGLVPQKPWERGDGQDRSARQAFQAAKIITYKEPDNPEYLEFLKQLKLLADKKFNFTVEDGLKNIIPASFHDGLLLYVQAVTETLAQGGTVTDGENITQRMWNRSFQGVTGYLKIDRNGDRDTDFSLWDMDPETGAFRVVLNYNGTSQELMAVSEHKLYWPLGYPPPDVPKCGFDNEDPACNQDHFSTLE
Nature of the test: ELISA, 1 uM IgG.

Test [3] deals with human NPR1 W74R mutant in the presence of ANP (human) (UniProt P01160). Nature of the test: ELISA, 1 uM IgG, +100 nM ANP.
In test [4] the target is T3, human NPR3 in the presence of ANP (human) (UniProt P17342).
T3 sequence (looked up): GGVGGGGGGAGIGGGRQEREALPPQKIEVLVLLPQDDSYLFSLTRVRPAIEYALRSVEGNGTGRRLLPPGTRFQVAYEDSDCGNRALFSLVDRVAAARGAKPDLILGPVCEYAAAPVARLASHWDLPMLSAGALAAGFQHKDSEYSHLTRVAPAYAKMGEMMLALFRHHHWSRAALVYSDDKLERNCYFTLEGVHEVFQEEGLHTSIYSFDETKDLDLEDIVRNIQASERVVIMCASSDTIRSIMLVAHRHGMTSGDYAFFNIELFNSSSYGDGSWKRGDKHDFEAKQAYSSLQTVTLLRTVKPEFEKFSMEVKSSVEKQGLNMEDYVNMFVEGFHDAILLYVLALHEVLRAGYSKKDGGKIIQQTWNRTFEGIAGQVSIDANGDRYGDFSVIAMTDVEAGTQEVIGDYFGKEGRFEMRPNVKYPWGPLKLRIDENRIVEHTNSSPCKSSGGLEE
T3 sequence (peptide, looked up): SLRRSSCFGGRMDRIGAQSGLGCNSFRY
The test is described as follows: ELISA, 1 uM IgG, +100 nM ANP.

Test [5] has as its target human NPR1 W74R mutant in the presence of ANP (human) (UniProt P01160). The test is described as follows: ELISA, IgG titrated on the antigen with 250 fold molar excess of ANP [cont.].
The target is the same in test [6]. The test is described as follows: ELISA, IgG titration, +100 nM ANP.
Test [7] concerns the target human NPR1 expressed on CHO-K1 cells in the presence of ANP (human) (UniProt P01160). The test is described as follows: flow cytometry, 2 uM IgG, +100 nM ANP. (In flow cytometry, cells or beads pass a laser one at a time.)

B1: YY06 IgG (YY06_LALA) (antibody, V domains shown)
VH: EVQLLESGGGLVQPGGSLRLSCAASGFTFSSYAISWVRQAPGKGLEWVSAISGSGGSTYYAESVKGRFTISRDNSKNTLYLQMNSLRAEDTAVYYCARPYLGDRRSYGFDHWGQGTLVTVSS
VL: QSALTQPASVSGSPGQSITISCTGTSSDVGSYNLVSWYQQHPGKAPKLMIYEGSKRPSGVSNRFSGSKSGNTASLTISGLQAEDEADYYCSSYGFHIVVVVFGGGTKLTVLG
For orientation: EC50 (read off the curve) means the concentration giving half of the maximal effect. In the case of B1, the ELISA IgG binding at 1 uM IgG (unit not given) in test [1] is 6; in test [2], 3; in test [3] it was 86; in test [4], 6. Further, in test [5], the EC50 (read off the curve) is 20 nM.

B2: WW06 IgG (WW06_LALA) (antibody, V domains shown)
VH: QVQLVQSGAEVKKPGESLKISCKGSGYSFTSYWIAWVRQMPGKGLEWMGRIDPDNSYTRYSPSFQGQVTISADKSISTAYLQWSSLKASDTAMYYCARWLSPGYALGEQPAGMDHWGQGTLVTVSS
VL: DIVLTQPPSVSGAPGQRVTISCTGSSSNIGAGYAVHWYQQLPGTAPKLLIYSNNKRPSGVPDRFSGSKSGTSASLAITGLQAEDEADYYCQSYDLQKSSRVFGGGTKLTVLG
Usually EC50 stands for the midpoint of the concentration-response curve. Consider B2, for which the EC50 in test [6] worked out at 0.8 nM. For the same molecule, the flow cytometry S/BG in test [7] came out at 1.1 S/BG.

B3: YY05 IgG (YY05_LALA) (antibody, V domains shown)
VH: EVQLVQSGAEVKKPGESLKISCKGSGYSFTSYWISWVRQMPGKGLEWMGIIYPGTSYTRYSPSFQGQVTISADKSISTAYLQWSSLKASDTAMYYCARGAVAGQLGFDHWGQGTLVTVSS
VL: QSVLTQPPSVSGAPGQRVTISCTGSSSNIGAGYDVHWYQQLPGTAPKLLIYGNSNRPSGVPDRFSGSKSGTSASLAITGLQAEDEADYYCQSYYTSSHGPVFGGGTKLTVLG
For B3, the ELISA IgG binding at 1 uM IgG (unit not given) in test [1] worked out at 7; in test [3], 23; in test [4] it was 4.

B4: YY07 IgG (YY07_LALA) (antibody, V domains shown)
VH: EVQLVQSGAEVKKPGESLKISCKGSGYSFTSYWISWVRQMPGKGLEWMGIIYPGTSYTRYSPSFQGQVTISADKSISTAYLQWSSLKASDTAMYYCARGSLPGLLGFDHWGQGTLVTVSS
VL: QSVLTQPPSVSGAPGQRVTISCTGSSSNIGAGYDVHWYQQLPGTAPKLLIYGNSNRPNGVPDRFSGSKSGTSASLAITGLQAEDEADYYCQSYDSPTSSSVFGGGTKLTVLG
As to B4, the ELISA IgG binding at 1 uM IgG (unit not given) in test [3] came out at 20; in test [4], 5.
